The record followed here is article PMC2888680.

Series [1] in a line: limited in vitro trypsin proteolysis of purified protein. The settings on record: glycan lost; control: wild-type mNEU1.
Series [2] is described as follows: anti-NEU1 immunoblot, Phoenix-A lysates. The following applies: glycan lost; control: wild-type mNEU1. (In general: In western blotting, separated proteins are transferred to a membrane and probed.)
Series [3] can be described thus: anti-NEU1 immunoblot, transduced NEU1-deficient fibroblasts. The settings on record: glycan lost; control: wild-type mNEU1.
Series [4] can be described thus: 4-MU-NANA activity, neu1-/- fibroblasts, PPCA cotransduced. The settings on record: glycan lost; control: wild-type mNEU1 coexpressed with PPCA.
A short description of series [5]: 4-MU-NANA activity, Phoenix-A lysates, PPCA coexpressed. The following applies: glycan lost; control: wild-type mNEU1.
The nature of series [6]: 4-MU-NANA activity, neu1-/- fibroblasts, endogenous PPCA only. The settings on record: glycan lost; control: wild-type mNEU1.

For murine NEU1 (mNEU1): N180D (mut1), the stability_or_folding entry in series [1] was “decreases”. The expression_or_secretion result in series [2] is reported as “decreases”.
As for murine NEU1 (mNEU1): N337D (mut2), the stability_or_folding result in series [1] is on record as “no change”. For the same substance, the expression_or_secretion result in series [3] was “decreases”; in series [2], “no change”. Moreover, the enzymatic_activity result in series [4] is listed as “no change”. Besides, in series [5], the “enzymatic_activity, percent_of_wt” value was “decreases”.
With murine NEU1 (mNEU1): N346D (mut3), the stability_or_folding entry in series [1] is recorded as “no change”. Besides, the expression_or_secretion result was “decreases” in series [3] and “no change” in series [2]. Moreover, the “enzymatic_activity, percent_of_wt” value in series [5] and in series [6] was “decreases” throughout.
In the case of murine NEU1 (mNEU1): N372D (mut4), the stability_or_folding result in series [1] was “no change”. Further, the expression_or_secretion result in series [3] and in series [2] was “no change” in each case. In series [4], the enzymatic_activity entry is “no change”. Besides, the “enzymatic_activity, percent_of_wt” value in series [5] and in series [6] was “no change” throughout.
